Patent publication US20210101998A1
Like-named read-outs stand apart in the source and are kept apart here.

Key:
[1] = biological target: endogenous TFPI in human plasma (human), P10646; assay: cell-based or functional assay
[2] = biological target: endogenous TFPI in human plasma (human), P10646; assay: cell-based or functional assay; remark: listed apart in the source

TGA Velocity Index at 20 nM [1]	dilute prothrombin time EC50 [1] [nM]	Dilute PT EC50 [1] [nM]	TGA Velocity EC50 [1] [nM]	TGA Velocity Index at 20 nM [2]	Binder
23.2	0.57	–	–	–	TFPI-24 (antibody, human IgG1, lambda) light: not shown heavy: EVQLVESGGGSVQPGRSLRLSCAVSGLTIDNYAMQWVRQRPGKGLEWVSGISGNSRSIGYADSVKGRLTISRDNAKNSLYLQIDSLRADDTALYYCAIFLHESDYWGQGTLVTVSSASTKGPSVFPLAPSSKSTSGGTAALGCLVKDYFPEPVTVSWNSGALTSGVHTFPAVLQSSGLYSLSSVVTVPSSSLGTQTYICNVNHKPSNTKVDKKVEPKSCDKTHTCPPCPAPEAAGAPSVFLFPPKPKDTLMISRTPEVTCVVVDVSHEDPEVKFNWYVDGVEVHNAKTKPREEQYNSTYRVVSVLTVLHQDWLNGKEYKCKVSNKALPAPIEKTISKAKGQPREPQVYTLPPSREEMTKNQVSLTCLVKGFYPSDIAVEWESNGQPENNYKTTPPVLDSDGSFFLYSKLTVDKSRWQQGNVFSCSVMHEALHNHYTQKSLSLSPG
–	1.16	1.16	7.72	–	TFPI-118 (antibody, human IgG1, lambda) light: not shown heavy: EVQLVESGGGLVQPGRSLRLSCAVSGLTIDNYAMQWVRQAPGKGLEWVSGISGNSRSIGYADSVKGRFTISRDNAKNSLYLQMNSLRAEDTALYYCAIFLHESDYWGQGTLVTVSSASTKGPSVFPLAPSSKSTSGGTAALGCLVKDYFPEPVTVSWNSGALTSGVHTFPAVLQSSGLYSLSSVVTVPSSSLGTQTYICNVNHKPSNTKVDKKVEPKSCDKTHTCPPCPAPEAAGAPSVFLFPPKPKDTLMISRTPEVTCVVVDVSHEDPEVKFNWYVDGVEVHNAKTKPREEQYNSTYRVVSVLTVLHQDWLNGKEYKCKVSNKALPAPIEKTISKAKGQPREPQVYTLPPSREEMTKNQVSLTCLVKGFYPSDIAVEWESNGQPENNYKTTPPVLDSDGSFFLYSKLTVDKSRWQQGNVFSCSVMHEALHNHYTQKSLSLSPG
13.5	–	–	–	26.3	4D8.b1 (antibody, mouse IgG1, kappa) light: DIVMTQSHKFMSTSVGDRVSITCKASQDVHTAVAWYQQKPGQSPRLLIYWASTRHTGVPDRFTGCGSGTDYTLTISSVQAEDLALYYCQQHYTTPYTFGGGTKLEMKADAAPTVSIFPPSSEQLTSGGASVVCFLNNFYPKDINVKWKIDGSERQNGVLNSWTDQDSKDSTYSMSSTLTLTKDEYERHNSYTCEATHKTSTSPIVKSFNRNEC heavy: EVLLQQSGPELVKPGASVKIPCKASGYTFTDYNLDWVKQSHGKSLEWIGDINPINGATLYNQKFKGKATLTVDQSSSTAYMELRSLTSEDTAVYYCSIYYGDYDAMDYWGQGASVTVSSAKTTPPSVYPLAPGSAAQTNSMVTLGCLVKGYFPEPVTVTWNSGSLSSGVHTFPAVLQSDLYTLSSSVTVPSSTWPSETVTCNVAHPASSTKVDKKIVPRDCGCKPCICTVPEVSSVFIFPPKPKDVLTITLTPKVTCVVVDISKDDPEVQFSWFVDDVEVHTAQTQPREEQFNSTFRSVSELPIMHQDWLNGKEFKCRVNSAAFPAPIEKTISKTKGRPKAPQVYTIPPPKEQMAKDKVSLTCMITDFFPEDITVEWQWNGQPAENYKNTQPIMDTDGSYFVYSKLNVQKSNWEAGNTFTCSVLHEGLHNHHTEKSLSHSPGK
–	–	–	–	23.5	6B7.c5 (antibody, mouse IgG1, kappa) light: DIVMTQSHKFMSTSVGDRVSITCKASQDVITAVAWYQQKPGQSPKLLIYWASTRHTGVPVRFTGSGSGTDYTLTIISVQAEDLALYYCQQHYSTPYTFGGGTKLEIKADAAPTVSIFPPSSEQLTSGGASVVCFLNNFYPKDINVKWKIDGSERQNGVLNSWTDQDSKDSTYSMSSTLTLTKDEYERHNSYTCEATHKTSTSPIVKSFNRNEC heavy: EVLLQQSGPELVKPGSSVKIPCKASGYTFTDYTMDWVKQSHGKSLEWIGDINPSNGGSIYNRKFKGKATLTVDKSSSTAYMELRSLTSEDTAVYYCARMHYNYDGFPYWGQGTLVTVSAAKTTPPSVYPLAPGSAAQTNSMVTLGCLVKGYFPEPVTVTWNSGSLSSGVHTFPAVLQSDLYTLSSSVTVPSSTWPSETVTCNVAHPASSTKVDKKIVPRDCGCKPCICTVPEVSSVFIFPPKPKDVLTITLTPKVTCVVVDISKDDPEVQFSWFVDDVEVHTAQTQPREEQFNSTFRSVSELPIMHQDWLNGKEFKCRVNSAAFPAPIEKTISKTKGRPKAPQVYTIPPPKEQMAKDKVSLTCMITDFFPEDITVEWQWNGQPAENYKNTQPIMDTDGSYFVYSKLNVQKSNWEAGNTFTCSVLHEGLHNHHTEKSLSHSPGK
15.7	0.47	0.47	3.9	–	hz4D8 (antibody, human IgG1, kappa) light: DIQMTQSPSSLSASVGDRVTITCKASQDVHTAVAWYQQKPGKAPKLLIYWASTRHTGVPSRFSGSGSGTDYTLTISSLQPEDFATYYCQQHYTTPYTFGQGTKLEIKRTVAAPSVFIFPPSDEQLKSGTASVVCLLNNFYPREAKVQWKVDNALQSGNSQESVTEQDSKDSTYSLSSTLTLSKADYEKHKVYACEVTHQGLSSPVTKSFNRGEC heavy: EVQLVESGGGLVQPGGSLRLSCAASGYTFTDYNLDWVRQAPGKGLEWVADINPINGATLYNQKFKGRFTISRDQAKNSLYLQMNSLRAEDTAVYYCARYYGDYDAMDYWGQGTLVTVSSASTKGPSVFPLAPSSKSTSGGTAALGCLVKDYFPEPVTVSWNSGALTSGVHTFPAVLQSSGLYSLSSVVTVPSSSLGTQTYICNVNHKPSNTKVDKKVEPKSCDKTHTCPPCPAPEAAGAPSVFLFPPKPKDTLMISRTPEVTCVVVDVSHEDPEVKFNWYVDGVEVHNAKTKPREEQYNSTYRVVSVLTVLHQDWLNGKEYKCKVSNKALPAPIEKTISKAKGQPREPQVYTLPPSREEMTKNQVSLTCLVKGFYPSDIAVEWESNGQPENNYKTTPPVLDSDGSFFLYSKLTVDKSRWQQGNVFSCSVMHEALHNHYTQKSLSLSPG
–	–	1	–	–	2A8-200 (antibody, human IgG1, lambda) light: DIELTQPPSVSVAPGQTARISCSGDNLRNYYAHWYQQKPGQAPVVVIFYDVNRPSGIPERFSGSNSGNTATLTISGTQAEDEADYYCQSWWDGVPVFGGGTKLTVLGQPKAAPSVTLFPPSSEELQANKATLVCLISDFYPGAVTVAWKADSSPVKAGVETTTPSKQSNNKYAASSYLSLTPEQWKSHRSYSCQVTHEGSTVEKTVAPTECS heavy: QVQLVESGGGLVQPGGSLRLSCAASGFTFRSYGMDWVRQAPGKGLEWVSSIRGSRSSTYYADSVKGRFTISRDNSKNTLYLQMNSLRAEDTAVYYCARLYRYWFDYWGQGTLVTVSSASTKGPSVFPLAPSSKSTSGGTAALGCLVKDYFPEPVTVSWNSGALTSGVHTFPAVLQSSGLYSLSSVVTVPSSSLGTQTYICNVNHKPSNTKVDKKVEPKSCDKTHTCPPCPAPEAAGAPSVFLFPPKPKDTLMISRTPEVTCVVVDVSHEDPEVKFNWYVDGVEVHNAKTKPREEQYNSTYRVVSVLTVLHQDWLNGKEYKCKVSNKALPAPIEKTISKAKGQPREPQVYTLPPSREEMTKNQVSLTCLVKGFYPSDIAVEWESNGQPENNYKTTPPVLDSDGSFFLYSKLTVDKSRWQQGNVFSCSVMHEALHNHYTQKSLSLSPG
–	–	–	–	23.3	7A4.D9 (antibody, mouse IgG1, kappa) light: DIVLTQSPASLAVSLGQRATISCRASKSVSTSGYTYMHWYQQKPGQPPKLLIYLASNLESGVPARFSGSGSGTDFTLNIHPVEEEDAAAYYCQHIRELPFTFGSGTKLEIKADAAPTVSIFPPSSEQLTSGGASVVCFLNNFYPKDINVKWKIDGSERQNGVLNSWTDQDSKDSTYSMSSTLTLTKDEYERHNSYTCEATHKTSTSPIVKSFNRNEC heavy: EVQLQQSGPELVKPGASVKMSCKASGYTFTSYVMHWVKQKPGQGLEWIGYLNPYNDGTKYNEKFKGKASLISDKSSSTVYMELSSLTSEDSAVYYCATTLLYAMDYWGQGSSVTVSSAKTTPPSVYPLAPGSAAQTNSMVTLGCLVKGYFPEPVTVTWNSGSLSSGVHTFPAVLQSDLYTLSSSVTVPSSTWPSETVTCNVAHPASSTKVDKKIVPRDCGCKPCICTVPEVSSVFIFPPKPKDVLTITLTPKVTCVVVDISKDDPEVQFSWFVDDVEVHTAQTQPREEQFNSTFRSVSELPIMHQDWLNGKEFKCRVNSAAFPAPIEKTISKTKGRPKAPQVYTIPPPKEQMAKDKVSLTCMITDFFPEDITVEWQWNGQPAENYKNTQPIMDTDGSYFVYSKLNVQKSNWEAGNTFTCSVLHEGLHNHHTEKSLSHSPGK
